Sequences and labels used below:
B1: Lsm10-MBP/Lsm11 heterodimer (wild-type, full-length Lsm11) (complex, human)
chain 1: MAVSHSVKERTISENSLIILLQGLQGRVTTVDLRDESVAHGRIDNVDAFMNIRLAKVTYTDRWGHQVKLDDLFVTGRNVRYVHIPDDVNITSTIEQQLQIIHRVRNFGGKGQGRWEFPPKNCK
chain 2: MEERERGARSAGAGSPARPPSPRLDVSSDSFDPLLALYAPRLPPIPYPNAPCFNNVAEYESFLRTGVRGGGRGRGRARGAAAGSGVPAAPGPSGRTRRRPDAPAPDPERIQRLRRLMVAKEEGDGAAGAGRRGPGRSRKAPRNVLTRMPLHEGSPLGELHRCIREGVKVNVHIRTFKGLRGVCTGFLVAFDKFWNMALTDVDETYRKPVLGKAYERDSSLTLTRLFDRLKLQDSSKKEADSKSAVEDSTLSRYSQTSTWKLASVWGRADTGRGSHKRSRSVPSSLQASAREESRSELSGRTTRTDGSSVGGTFSRATTLSRGQSRKKKRKPKVDYQQVFTRHINQIFIRGENVLLVHLAQ
notes: Lsm10, human, full length; Lsm11, human, full length, 360 amino acids; The results call the fusion Lsm10-MBP, the methods say MBP was added to the amino terminus of Lsm10; also called Lsm10/11; 10/11; source: baculovirus-expressed, recombinant; not shown: MBP, N-terminal, kept
B2: Lsm10/11ΔL heterodimer (MBP-Lsm10 with Lsm11 lacking the internal loop, amino acids 211-322) (complex, human)
chain 1: B1 chain 1
chain 2: MEERERGARSAGAGSPARPPSPRLDVSSDSFDPLLALYAPRLPPIPYPNAPCFNNVAEYESFLRTGVRGGGRGRGRARGAAAGSGVPAAPGPSGRTRRRPDAPAPDPERIQRLRRLMVAKEEGDGAAGAGRRGPGRSRKAPRNVLTRMPLHEGSPLGELHRCIREGVKVNVHIRTFKGLRGVCTGFLVAFDKFWNMALTDVDETYRKPVLQSRKKKRKPKVDYQQVFTRHINQIFIRGENVLLVHLAQ
notes: Lsm10, human, full length; Lsm11, human, lacking residues 211-322 (internal loop); Purified on nickel beads; also called Lsm10/11ΔL dimer; Lsm11ΔL; source: High5 insect cells (baculovirus), purified (nickel beads, HiTrap Heparin); not shown: MBP, N-terminal, kept
B3: recombinant mouse pICln (natural protein, UniProt Q61189 1-236, looked up)
chain: MSFLKSFPPPGSADGLRLQQPDTEAVLNGKGLGTGTLYIAESRLSWLDGSGLGFSLEYPTISLHAVSRDPNAYPQEHLYVMVNAKLGEESKEPPSDEDEEDNDDIEPISEFRFVPSDKSALEAMFTAMCECQALHPDPEDEDSDDYDGEEYDVEAHEQGQGDIPTFYTYEEGLSHLTAEGQATLERLEGMLSQSVSSQYNMAGVRTEDSVRNYEDGMEVETTPTVAGQFEDADVDH
notes: pICln, mouse, full length; source: E. coli Rosetta, purified (nickel beads, MonoQ)
B4: Lsm11 lacking residues 211-322 (chain of the Lsm10/11 heterodimer) (natural protein, human, UniProt P83369 1-360, looked up)
chain: B2 chain 2
notes: Lsm11, human, lacking residues 211-322 (internal loop); The Lsm11 chain of m2, written alone for the pairs Lsm11-PRMT5 and Lsm11-Lsm10; also called Lsm11ΔL; source: High5 insect cells (baculovirus), coexpressed with MBP-Lsm10, purified (nickel beads, HiTrap Heparin)

Common to all, as to conditions: both partners purified
Test [1] addresses T1, recombinant PRMT5/MEP50 complex (human, UniProt O14744 1-637; Q9BQA1 1-342).
T1 construct: PRMT5, human, full length; MEP50, human, full length; also called PRMT5/MEP50 heterooctamer; PRMT5/MEP50 heterodimer; source: High5 insect cells (baculovirus), coexpressed, purified (nickel beads, Superdex 200); copies: 4 + 4
Kind of test: pull-down; recombinant PRMT5/MEP50 mixed with MBP-Lsm10/11 heterodimer (molar ratio 1:1) without pICln, collected on amylose beads via MBP on Lsm10; silver staining.

Test [2] concerns the target T1, recombinant PRMT5/MEP50 complex. Kind of test: cryo-EM structure; PRMT5/MEP50, Lsm10/11 and pICln mixed 1:1:1.2, complex purified on Superose 6 (25 mM Tris pH 7.5, 150 mM NaCl, 2 mM DTT); map at 2.86 Å, C1 symmetry.
Test [3] deals with B1. Description: pull-down; recombinant PRMT5/MEP50 mixed with MBP-Lsm10/11 heterodimer (molar ratio 1:1) in the presence of recombinant pICln, collected on amylose beads via MBP on Lsm10; silver staining.
The target in test [4] is T2, recombinant human PRMT5 (chain of the PRMT5/MEP50 complex) (human, UniProt O14744 1-637).
T2 construct: PRMT5, human, full length; The PRMT5 chain of m17, written alone for the pairs seen in the cryo-EM structures; source: High5 insect cells (baculovirus), coexpressed with MEP50, purified (nickel beads, Superdex 200)
T2 sequence (O14744 whole entry, one chain of several): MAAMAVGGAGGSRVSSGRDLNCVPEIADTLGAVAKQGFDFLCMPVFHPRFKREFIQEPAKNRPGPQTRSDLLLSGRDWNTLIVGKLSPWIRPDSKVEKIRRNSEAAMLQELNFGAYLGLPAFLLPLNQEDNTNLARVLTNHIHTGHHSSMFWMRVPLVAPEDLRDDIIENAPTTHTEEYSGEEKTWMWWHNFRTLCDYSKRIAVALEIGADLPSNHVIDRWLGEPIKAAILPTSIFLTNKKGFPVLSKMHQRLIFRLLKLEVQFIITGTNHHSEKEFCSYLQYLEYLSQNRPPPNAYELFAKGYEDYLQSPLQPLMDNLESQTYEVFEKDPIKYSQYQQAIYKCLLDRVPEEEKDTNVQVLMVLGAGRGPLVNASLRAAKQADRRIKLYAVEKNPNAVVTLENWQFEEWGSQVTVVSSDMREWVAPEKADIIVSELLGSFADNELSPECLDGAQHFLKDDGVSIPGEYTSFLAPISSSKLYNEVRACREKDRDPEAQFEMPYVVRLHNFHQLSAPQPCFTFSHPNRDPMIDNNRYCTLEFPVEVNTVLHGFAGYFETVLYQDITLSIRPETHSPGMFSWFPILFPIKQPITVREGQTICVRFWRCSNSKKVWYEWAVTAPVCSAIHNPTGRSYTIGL
Kind of test: cryo-EM structure; PRMT5/MEP50, Lsm10/11 and pICln mixed 1:1:1.2, complex purified on Superose 6 (25 mM Tris pH 7.5, 150 mM NaCl, 2 mM DTT); map at 2.86 Å, C1 symmetry.

T1 sequence (O14744 whole entry, chain 1 of 2): as the sequence (O14744 whole entry, one chain of several) above
T1 sequence (Q9BQA1 whole entry, chain 2 of 2): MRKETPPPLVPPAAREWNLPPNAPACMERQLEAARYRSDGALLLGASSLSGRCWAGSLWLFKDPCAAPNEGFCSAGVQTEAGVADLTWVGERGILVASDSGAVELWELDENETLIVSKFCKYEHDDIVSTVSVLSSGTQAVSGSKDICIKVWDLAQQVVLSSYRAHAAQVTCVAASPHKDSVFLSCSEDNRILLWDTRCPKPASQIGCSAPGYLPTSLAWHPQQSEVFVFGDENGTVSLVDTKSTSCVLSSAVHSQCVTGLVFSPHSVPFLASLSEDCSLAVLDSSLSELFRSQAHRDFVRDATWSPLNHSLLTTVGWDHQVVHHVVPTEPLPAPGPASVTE

For the molecule B1, the binding result in test [1] is recorded as “binds”. For B2, the binding result in test [2] is on record as “binds”. B3: the binding result in test [3], in test [4] and in test [2] was “binds” in each case. On to B4, for which, in test [4], the binding result is on record as “binds”.
